From the supplement of paper PMC10567573

B1: KCNAB2 (parent)
chain: YVDVVFANRPDPNTPMEETVRAMT

Variants of: B1
Experiment: protein stability index of a GFP-peptide fusion (GPS, HEK-293T) (PSI 1-6); higher = more stable
Conditions: c terminus: a fixed tail appended
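Further: lentivirally expressed fusions sorted by FACS into six bins by GFP to DsRed ratio, PSI derived from sequencing read proportions per bin multiplied by bin number.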

Variant	protein stability index
YVDVKFANRPDPNTPMEETVRAMT [V5K]	1.82
YVDVSFANRPDPNTPMEETVRAMT [V5S]	1.93
YVDVPFANRPDPNTPMEETVRAMT [V5P]	2.01
YVDVIFANRPDPNTPMEETVRAMT [V5I]	2.09
YVDVTFANRPDPNTPMEETVRAMT [V5T]	2.12
YVDVNFANRPDPNTPMEETVRAMT [V5N]	2.06
YVDVHFANRPDPNTPMEETVRAMT [V5H]	2.09
YVDVYFANRPDPNTPMEETVRAMT [V5Y]	2.03
TVDVVFANRPDPNTPMEETVRAMT [Y1T]	4.31
IVDVVFANRPDPNTPMEETVRAMT [Y1I]	2.7
AVDVVFANRPDPNTPMEETVRAMT [Y1A]	4.19
PVDVVFANRPDPNTPMEETVRAMT [Y1P]	4.42
SVDVVFANRPDPNTPMEETVRAMT [Y1S]	4.28
FVDVVFANRPDPNTPMEETVRAMT [Y1F]	1.94
YVDVVFANRPDPNTPMEETDRAMT [V20D]	1.76
YVDVVFANRPDPNTPMEETTRAMT [V20T]	1.81
YVDVVFANRPDPNTPMEETFRAMT [V20F]	1.64
YVDVVFANRPDPNTPMEETERAMT [V20E]	1.76
YVDVVFANRPDPNTPMEETARAMT [V20A]	1.82
YVDVVFANRPDPNTPMEETNRAMT [V20N]	1.92
YVDVVFANRPDPNTPMEETHRAMT [V20H]	1.81
YVDVVFANRPDPNTPMEETLRAMT [V20L]	2.58
YVDVVFANRPDPNTPMEETCRAMT [V20C]	1.99
YVDVVFANRPDPNTPMEETSRAMT [V20S]	2.06

Variant	protein stability index
YVDVVFANRPDPNTPMEETPRAMT [V20P]	1.86
YVDVVFANRPDPNTPMEETIRAMT [V20I]	1.87
YVDVVFANRPDPNTPDEETVRAMT [M16D]	1.77
YVDVVFANRPDPNTPQEETVRAMT [M16Q]	2.27
YVDVVFANRPDPNTPHEETVRAMT [M16H]	1.93
YVDVVFANRPDPNTPLEETVRAMT [M16L]	1.86
YVDVVFANRPDPNTPPEETVRAMT [M16P]	1.91
YVDVVFANRPDPNTPAEETVRAMT [M16A]	1.8
YVDVVFANRPDPNTPCEETVRAMT [M16C]	1.82
YVDVVFANRPDPNTPEEETVRAMT [M16E]	2.02
YVDVVFANRPDPNTPSEETVRAMT [M16S]	2.42
YADVVFANRPDPNTPMEETVRAMT [V2A]	2.96
YHDVVFANRPDPNTPMEETVRAMT [V2H]	2.39
YKDVVFANRPDPNTPMEETVRAMT [V2K]	4.33
YTDVVFANRPDPNTPMEETVRAMT [V2T]	2.91
YNDVVFANRPDPNTPMEETVRAMT [V2N]	4.51
YCDVVFANRPDPNTPMEETVRAMT [V2C]	2.34
YWDVVFANRPDPNTPMEETVRAMT [V2W]	2.5
YVDVVFANRPDNNTPMEETVRAMT [P12N]	1.28
YVDVVFANRPDENTPMEETVRAMT [P12E]	1.65
YVDVVFANRPDVNTPMEETVRAMT [P12V]	2.72
YVDVVFANRPDHNTPMEETVRAMT [P12H]	1.37
YVDVVFANRPDQNTPMEETVRAMT [P12Q]	2.43
YVDVVFANRPDCNTPMEETVRAMT [P12C]	2.08

Variant	protein stability index
YVDVVFANRPDLNTPMEETVRAMT [P12L]	2.51
YVDVVFANRPDYNTPMEETVRAMT [P12Y]	2.72
YVDVVFANRPDPNTPMEEEVRAMT [T19E]	1.71
YVDVVFANRPDPNTPMEENVRAMT [T19N]	2
YVDVVFANRPDPNTPMEEDVRAMT [T19D]	2.07
YVDVVFANRPDPNTPMEECVRAMT [T19C]	1.46
YVDVVFANRPDPNTPMEEGVRAMT [T19G]	1.9
YVDVVFANRPDPNTPMEEKVRAMT [T19K]	2.41
YVDVVFANRRDPNTPMEETVRAMT [P10R]	2.13
YVDVVFANRQDPNTPMEETVRAMT [P10Q]	1.73
YVDVVFANRSDPNTPMEETVRAMT [P10S]	1.38
YVDVVFANRIDPNTPMEETVRAMT [P10I]	2.2
YVDVVFANRTDPNTPMEETVRAMT [P10T]	2.17
YVDVVFANREDPNTPMEETVRAMT [P10E]	2.13
YVDVVFANRPDPNTPMEKTVRAMT [E18K]	2.75
YVDVVFANRPDPNTPMESTVRAMT [E18S]	1.99
YVDVVFANRPDPNTPMEWTVRAMT [E18W]	1.85
YVDVVFANRPDPNTPMEGTVRAMT [E18G]	1.75
YVDVVFANRPDPNTPMEVTVRAMT [E18V]	2.43
YVDVVFANRPDPNTPMEDTVRAMT [E18D]	2.04
YVDVVFANRPDPNTPMEQTVRAMT [E18Q]	2.09
YVDVVFAPRPDPNTPMEETVRAMT [N8P]	1.82
YVDVVFACRPDPNTPMEETVRAMT [N8C]	2.94
YVDVVFAGRPDPNTPMEETVRAMT [N8G]	1.83

Variant	protein stability index
YVDVVFARRPDPNTPMEETVRAMT [N8R]	2.3
YVDVVFAHRPDPNTPMEETVRAMT [N8H]	1.76
YVDVVFAYRPDPNTPMEETVRAMT [N8Y]	2.88
YVDVVFAIRPDPNTPMEETVRAMT [N8I]	2.35
YVDVVFAQRPDPNTPMEETVRAMT [N8Q]	1.9
YVDVVFASRPDPNTPMEETVRAMT [N8S]	2.33
YVDVVFAERPDPNTPMEETVRAMT [N8E]	2.14
YVDVVFALRPDPNTPMEETVRAMT [N8L]	2.61
YVDVVFPNRPDPNTPMEETVRAMT [A7P]	2.14
YVDVVFMNRPDPNTPMEETVRAMT [A7M]	2.16
YVDVVFKNRPDPNTPMEETVRAMT [A7K]	1.64
YVDVVFGNRPDPNTPMEETVRAMT [A7G]	2.2
YVDVVFDNRPDPNTPMEETVRAMT [A7D]	2.02
YVDVVFSNRPDPNTPMEETVRAMT [A7S]	2.13
YVDVVFNNRPDPNTPMEETVRAMT [A7N]	1.97
YVDVVRANRPDPNTPMEETVRAMT [F6R]	2.05
YVDVVQANRPDPNTPMEETVRAMT [F6Q]	3.1
YVDVVEANRPDPNTPMEETVRAMT [F6E]	3.63
YVDVVNANRPDPNTPMEETVRAMT [F6N]	3.01
YVDVVHANRPDPNTPMEETVRAMT [F6H]	2.42
YVDVVAANRPDPNTPMEETVRAMT [F6A]	2.79
YVDVVVANRPDPNTPMEETVRAMT [F6V]	1.94
